Measured values taken from the Human Domainome abundance scans (Beltran et al. 2025).
± gives the uncertainty stated by the source.

B1: Retinoic acid receptor beta, residues 85 to 161; numbered along this chain, P10826 (parent)
chain: YKPCFVCQDKSSGYHYGVSACEGCKGFFRRSIQKNMIYTCHRDKNCVINKVTRNRCQYCRLQKCFEVGMSKESVRND

Variants of: B1
Assay: abundance fitness (aPCA) (normalised: wild type 0, dead -1); higher = more abundant; growth selection in yeast, the domain comes from the species named
Details: Homo sapiens

Row | Variant | abundance fitness
1 | I48G | -0.605 ± 0.11
2 | I48C | -0.72 ± 0.19
3 | I48F | -0.078 ± 0.055
4 | I48A | -0.531 ± 0.068
5 | S31M | -0.486 ± 0.11
6 | S31V | -0.341 ± 0.054
7 | S31G | -0.774 ± 0.079
8 | S31R | -0.559 ± 0.058
9 | S31W | -0.09 ± 0.045
10 | S31T | 0.148 ± 0.056
11 | S31A | -0.121 ± 0.041
12 | S31N | -0.508 ± 0.29
13 | S31P | -0.611 ± 0.19
14 | S31I | -0.413 ± 0.17
15 | S31L | -0.6 ± 0.09
16 | S31C | -0.12 ± 0.06
17 | S31Y | -0.51 ± 0.2
18 | S31E | -0.505 ± 0.086
19 | K34D | 0.33 ± 0.062
20 | K34G | 0.078 ± 0.03
21 | K34H | -0.146 ± 0.11
22 | K34M | 0.104 ± 0.051
23 | K34T | -0.06 ± 0.056
24 | K34Y | -0.007 ± 0.086

Row | Variant | abundance fitness
25 | K34I | -0.371 ± 0.12
26 | K34R | -0.122 ± 0.035
27 | K34C | -0.05 ± 0.054
28 | K34F | 0.014 ± 0.092
29 | K34N | 0.089 ± 0.1
30 | K34P | -0.084 ± 0.077
31 | K34L | 0.074 ± 0.04
32 | K34A | 0.003 ± 0.042
33 | K34W | 0.05 ± 0.041
34 | K34V | -0.145 ± 0.039
35 | K34E | 0.169 ± 0.044
36 | M36H | -0.025 ± 0.13
37 | M36Q | 0.089 ± 0.059
38 | M36G | -0.141 ± 0.035
39 | M36S | -0.002 ± 0.053
40 | M36K | 0.01 ± 0.07
41 | M36V | 0.072 ± 0.039
42 | M36C | 0.15 ± 0.065
43 | M36R | -0.064 ± 0.036
44 | M36L | 0.053 ± 0.046
45 | M36A | 0.132 ± 0.045
46 | M36T | 0.051 ± 0.065
47 | M36N | 0.009 ± 0.11
48 | M36W | -0.127 ± 0.052

Row | Variant | abundance fitness
49 | M36P | -0.216 ± 0.098
50 | M36I | -0.239 ± 0.1
51 | M36E | 0.124 ± 0.046
52 | M36F | -0.4 ± 0.12
53 | I32P | -1.09 ± 0.37
54 | I32D | -0.312 ± 0.14
55 | I32A | -0.156 ± 0.052
56 | I32L | -0.08 ± 0.049
57 | I32R | -0.648 ± 0.073
58 | I32F | -0.633 ± 0.22
59 | I32M | -0.105 ± 0.061
60 | I32C | -0.176 ± 0.075
61 | I32N | -0.059 ± 0.11
62 | I32S | -0.487 ± 0.098
63 | I32V | 0.055 ± 0.04
64 | I32G | -0.521 ± 0.06
65 | I32K | -0.45 ± 0.12
66 | I32Y | -0.056 ± 0.099
67 | I32Q | -0.261 ± 0.1
68 | I32W | -0.432 ± 0.083
69 | Y38M | -0.466 ± 0.088
70 | Y38H | -0.414 ± 0.13
71 | Y38E | -0.472 ± 0.077
72 | Y38W | -0.282 ± 0.062

Row | Variant | abundance fitness
73 | Y38T | -0.173 ± 0.066
74 | Y38S | -0.417 ± 0.074
75 | Y38P | -0.26 ± 0.085
76 | Y38A | -0.59 ± 0.083
77 | Y38G | -0.523 ± 0.06
78 | Y38C | -0.899 ± 0.26
79 | Y38D | -0.997 ± 0.34
80 | Y38R | -0.499 ± 0.065
81 | Y38N | -0.28 ± 0.18
82 | Y38F | -0.187 ± 0.12
83 | Y38Q | -0.739 ± 0.15
84 | N35T | 0.039 ± 0.063
85 | N35M | -0.149 ± 0.081
86 | N35L | -0.235 ± 0.06
87 | N35H | -0.373 ± 0.14
88 | N35G | 0.077 ± 0.032
89 | N35S | 0.035 ± 0.051
90 | N35R | -0.018 ± 0.037
91 | N35F | -0.215 ± 0.11
92 | N35D | 0.128 ± 0.062
93 | N35Q | 0.087 ± 0.065
94 | N35E | 0.159 ± 0.046
95 | N35I | -0.684 ± 0.32
96 | N35P | -0.312 ± 0.092

Row | Variant | abundance fitness
97 | N35A | 0.037 ± 0.045
98 | N35K | 0.186 ± 0.061
99 | N35V | -0.184 ± 0.057
100 | N35W | -0.45 ± 0.072
101 | N35C | 0.024 ± 0.08
102 | K50G | 0.153 ± 0.064
103 | K50M | 0.124 ± 0.069
104 | K50T | 0.125 ± 0.058
105 | K50A | 0.145 ± 0.052
106 | K50S | 0.231 ± 0.044
107 | K50R | 0.153 ± 0.051
108 | K50P | 0.09 ± 0.044
109 | K50H | 0.094 ± 0.059
110 | K50D | 0.225 ± 0.12
111 | K50N | 0.021 ± 0.085
112 | K50I | 0.244 ± 0.074
113 | K50C | -0.218 ± 0.11
114 | K50Q | 0.158 ± 0.043
115 | I37H | -0.161 ± 0.16
116 | I37P | -0.118 ± 0.084
117 | I37G | -0.152 ± 0.036
118 | I37Q | 0.1 ± 0.06
119 | I37R | -0.009 ± 0.035
120 | I37K | 0.13 ± 0.055

Row | Variant | abundance fitness
121 | I37S | -0.085 ± 0.057
122 | I37N | 0.043 ± 0.081
123 | I37V | 0.032 ± 0.038
124 | I37E | 0.046 ± 0.048
125 | I37T | -0.098 ± 0.057
126 | I37W | -0.119 ± 0.053
127 | I37Y | -0.345 ± 0.16
128 | I37D | 0.048 ± 0.079
129 | I37L | -0.053 ± 0.045
130 | I37C | -0.204 ± 0.099
131 | K44C | -0.113 ± 0.067
132 | K44P | -0.599 ± 0.21
133 | K44V | -0.356 ± 0.057
134 | K44E | -0.015 ± 0.051
135 | K44A | -0.004 ± 0.046
136 | K44G | 0.035 ± 0.033
137 | K44R | 0 ± 0.035
138 | K44I | -0.009 ± 0.13
139 | K44H | -0.322 ± 0.14
140 | K44L | -0.059 ± 0.043
141 | K44F | -0.283 ± 0.087
142 | K44S | 0.056 ± 0.044
143 | K44Y | -0.321 ± 0.098
144 | K44T | -0.043 ± 0.069

Row | Variant | abundance fitness
145 | K44Q | 0.166 ± 0.06
146 | K44D | -0.059 ± 0.075
147 | K44M | 0.032 ± 0.055
148 | K44W | -0.208 ± 0.051
149 | Q33Y | -0.328 ± 0.14
150 | Q33I | 0.028 ± 0.088
151 | Q33P | -0.773 ± 0.18
152 | Q33N | 0.066 ± 0.096
153 | Q33C | -0.225 ± 0.087
154 | Q33F | -0.148 ± 0.091
155 | Q33L | 0.078 ± 0.038
156 | Q33D | 0.016 ± 0.073
157 | Q33S | -0.014 ± 0.05
158 | Q33K | -0.016 ± 0.069
159 | Q33M | 0.136 ± 0.051
160 | Q33A | 0.105 ± 0.043
161 | Q33T | -0.15 ± 0.074
162 | Q33E | -0.017 ± 0.052
163 | Q33H | -0.175 ± 0.1
164 | Q33R | -0.037 ± 0.033
165 | Q33W | -0.097 ± 0.045
166 | Q33V | 0.045 ± 0.039
167 | Q33G | -0.044 ± 0.032
